# T1: huFGFR3(IIIb), immobilized receptor (human, UniProt P22607-2 23-377, limits assumed)
# T1 construct: Amine-coupled to a CM5 chip; also called human FGFR3(IIIb)
# T1 sequence (looked up): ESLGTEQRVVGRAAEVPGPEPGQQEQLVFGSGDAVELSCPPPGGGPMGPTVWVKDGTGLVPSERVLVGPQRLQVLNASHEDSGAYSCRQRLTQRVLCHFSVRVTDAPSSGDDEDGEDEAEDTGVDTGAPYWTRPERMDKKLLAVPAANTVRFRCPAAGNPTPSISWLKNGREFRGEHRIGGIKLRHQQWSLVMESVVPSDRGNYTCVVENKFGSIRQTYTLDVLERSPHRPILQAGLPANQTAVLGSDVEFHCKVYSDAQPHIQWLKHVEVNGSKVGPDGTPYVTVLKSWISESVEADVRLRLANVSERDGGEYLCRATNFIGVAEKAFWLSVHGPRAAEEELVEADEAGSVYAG
# T2: human FGFR3(IIIb)-Fc (human, UniProt P22607-2 23-377, limits assumed)
# T2 construct: Coated on the MSD plate; not shown: Fc part
# T2 sequence (looked up): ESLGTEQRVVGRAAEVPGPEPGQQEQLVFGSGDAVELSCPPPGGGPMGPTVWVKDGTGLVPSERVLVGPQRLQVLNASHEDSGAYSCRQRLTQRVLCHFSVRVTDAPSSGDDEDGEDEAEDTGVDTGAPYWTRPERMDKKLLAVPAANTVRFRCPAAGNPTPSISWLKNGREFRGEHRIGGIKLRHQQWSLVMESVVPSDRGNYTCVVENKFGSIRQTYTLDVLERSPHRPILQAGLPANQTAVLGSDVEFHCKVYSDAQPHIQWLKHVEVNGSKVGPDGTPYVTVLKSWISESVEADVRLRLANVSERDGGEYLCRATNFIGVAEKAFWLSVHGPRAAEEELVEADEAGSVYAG
# B1: Antibody 1-Alexa488 (antibody, human IgG1, lambda, V domains shown)
# VH: EVQLVQSGAEVKKPGASVKVSCKASGYMFTSYGISWVRQAPGQGLEWMGWVSTYNGDTNYAQKFQGRVTVTTDTSTSTAYMELRSLRSEDTAVYYCARVLGYYDSIDGYYYGMDVWGQGTTVTVSS
# VL: QSVLTQPPSLSVAPGKTATFTCGGNNIGDKSVHWYRQKPGQAPVLVMYLDTERPSGIPERMSGSNFGNTATLTITRVEAGDEADYYCQVWDSGSDHVVFGGGTKLTVLG
# modifications: Alexa488 label (sites not given)
# B2: Antibody 1 (antibody, human IgG1, lambda, V domains shown)
# VH: EVQLVQSGAEVKKPGASVKVSCKASGYMFTSYGISWVRQAPGQGLEWMGWVSTYNGDTNYAQKFQGRVTVTTDTSTSTAYMELRSLRSEDTAVYYCARVLGYYDSIDGYYYGMDVWGQGTTVTVSS
# VL: QSVLTQPPSLSVAPGKTATFTCGGNNIGDKSVHWYRQKPGQAPVLVMYLDTERPSGIPERMSGSNFGNTATLTITRVEAGDEADYYCQVWDSGSDHVVFGGGTKLTVLG
# notes: Human monoclonal antibody with a lambda light chain; also called naked Antibody 1; anti-FGFR3 antibody
# B3: Conjugate 1 (antibody, human IgG1, lambda, V domains shown)
# VH: EVQLVQSGAEVKKPGASVKVSCKASGYMFTSYGISWVRQAPGQGLEWMGWVSTYNGDTNYAQKFQGRVTVTTDTSTSTAYMELRSLRSEDTAVYYCARVLGYYDSIDGYYYGMDVWGQGTTVTVSS
# VL: QSVLTQPPSLSVAPGKTATFTCGGNNIGDKSVHWYRQKPGQAPVLVMYLDTERPSGIPERMSGSNFGNTATLTITRVEAGDEADYYCQVWDSGSDHVVFGGGTKLTVLG
# modifications: DM4 attached through the sulfo-SPDB linker to available lysine residues (positions not given); DAR 3.5 ± 0.5 for the whole antibody
# notes: also called Antibody 1-sulfo-SPDB-DM4; the conjugate of the present invention
# Experiments:
# [1] = biological target: human FGFR3 S249C, endogenous on UMUC-14 bladder tumor cells (human) (UniProt P22607); experiment: cell-based or functional assay
# [2] = biological target: human FGFR3 on RT-112 bladder tumor cells (wild type and FGFR3-TACC3 fusion receptors) (human) (UniProt P22607); experiment: cell-based or functional assay
# [3] = biological target: FGFR3-TACC3 fusion on RT-4 bladder tumor cells (TACC3 exon-4) (human, UniProt Q9Y6A5 140-838, limits assumed); experiment: cell-based or functional assay
# [4] = biological target: human FGFR3 Y373C, endogenous on KMS-11 multiple myeloma cells (human) (UniProt P22607); experiment: flow cytometry, 15 µg/mL Alexa488-labeled Antibody 1 on KMS-11 cells, quantified with Quantum Simply Cellular beads
# [5] = biological target: human FGFR3 on RT-112 bladder tumor cells (wild type and FGFR3-TACC3 fusion receptors) (human) (UniProt P22607); experiment: flow cytometry, 15 µg/mL Alexa488-labeled Antibody 1 on RT-112 cells, quantified with Quantum Simply Cellular beads
# [6] = biological target: human FGFR3 S249C, endogenous on UMUC-14 bladder tumor cells (human) (UniProt P22607); experiment: flow cytometry, 15 µg/mL Alexa488-labeled Antibody 1 on UMUC-14 cells, quantified with Quantum Simply Cellular beads
# [7] = biological target: human FGFR3 wild type, endogenous on tumor cell lines (BFTC-905, KU-19-19, UMUC-3) (human) (UniProt P22607); experiment: flow cytometry, 15 µg/mL Alexa488-labeled Antibody 1 on BFTC-905 cells, quantified with Quantum Simply Cellular beads
# [8] = biological target: human FGFR3 wild type, endogenous on tumor cell lines (BFTC-905, KU-19-19, UMUC-3) (human) (UniProt P22607); experiment: flow cytometry, 15 µg/mL Alexa488-labeled Antibody 1 on KU-19-19 cells, quantified with Quantum Simply Cellular beads
# [9] = biological target: human FGFR3(IIIb) S249C on BaF3 cells (human, UniProt P22607 23-808); experiment: cell-based or functional assay
# [10] = biological target: human FGFR3(IIIb) G372C on BaF3 cells (human, UniProt P22607 23-808); experiment: cell-based or functional assay
# [11] = biological target: human FGFR3(IIIb) Y375C on BaF3 cells (human, UniProt P22607 23-808); experiment: cell-based or functional assay
# [12] = biological target: T3, human FGFR3(IIIb) WT on BaF3 cells (human, UniProt P22607 23-808); experiment: cell-based or functional assay
# [13] = biological target: human FGFR3(IIIb) R248C on BaF3 cells (human, UniProt P22607 23-808); experiment: cell-based or functional assay
# [14] = biological target: T1, huFGFR3(IIIb), immobilized receptor; experiment: SPR (Biacore); the sentence names no antigen or format, the section is on immobilized huFGFR3(IIIb); naked Antibody 1, not Conjugate 1
# [15] = biological target: human FGFR3 wild type, endogenous on tumor cell lines (BFTC-905, KU-19-19, UMUC-3) (human, UniProt P22607 23-806); experiment: cell-based or functional assay
# [16] = biological target: T4, human FGFR3 on RT-112 bladder tumor cells (wild type and FGFR3-TACC3 fusion receptors) (human, UniProt P22607 23-806); experiment: cell-based or functional assay
# [17] = biological target: T4, human FGFR3 on RT-112 bladder tumor …; experiment: cell-based or functional assay; remark: listed apart in the source
# [18] = biological target: human FGFR3 on Kato-III gastric tumor cells (human, UniProt P22607 23-806); experiment: cell-based or functional assay
# [19] = biological target: T3, human FGFR3(IIIb) WT on BaF3 cells; experiment: cell-based or functional assay; remark: listed apart in the source
# [20] = biological target: T1, huFGFR3(IIIb), immobilized receptor; experiment: SPR, Biacore T200, 25 C, huFGFR3(IIIb) amine-coupled on CM5 chip, Conjugate 1 as analyte, 1:1 model, n=3
# Experimental: Use a CM5 chip containing immobilized receptor huFGFR3(IIIb) (generated using standard NHS-EDC amine coupling) on 2 flow cells. Prepare samples of Conjugate 1 by 2 fold serial dilutions starting at 60 nM, 6 dilutions total into running buffer. Immobilize receptor at 2.5 μg/mL (55 RU). Each analysis cycle consists of: (1) sample injection at 30 μL/min with 180 sec contact time, (2) dissociation by injection of buffer for 900 sec at 30 μL/min, (3) regeneration in a 0.5% solution of SDS contact time 30 sec at a flow rate of 40 μL/min. Process data using standard double-referencing and fit to a 1:1 binding model using Biacore® 2000 Evaluation software, version 4.1, to determine the association rate (kₒₙ, M⁻¹s⁻¹ units), dissociation rate (koff, s⁻¹ units), and Rmax (RU units). The equilibrium dissociation constant (KD) is calculated from the relationship of KD=koff/kₒₙ. KD is in molar units.
# [21] = biological target: T2, human FGFR3(IIIb)-Fc; experiment: MSD electrochemiluminescence plate assay: blocking of ruthenium-labeled FGF1 (1 ug/mL, with heparin) binding to coated human FGFR3(IIIb)-Fc
binder,measurement,setting,value
B1,"internalization in UMUC-14 cells, cell-associated fluorescence by flow cytometry over 48 h (fold over control)",[1],> 9
same,"internalization in RT-112 cells, cell-associated fluorescence by flow cytometry over 48 h (fold over background)",[2],7
same,"internalization in RT-4 cells, cell-associated fluorescence by flow cytometry over 48 h",[3],~7 fold over background
same,FGFR3 cell surface expression (ABC),[4],120000 ABC
same,FGFR3 cell surface expression (ABC),[5],16000 ABC
same,FGFR3 cell surface expression (ABC),[6],27000 ABC
same,FGFR3 cell surface expression (ABC),[7],11000 ABC
same,FGFR3 cell surface expression (ABC),[8],< 4000 ABC
B2,IC50 for neutralizing FGF1 (51.6 nM)-induced 3H-thymidine incorporation in BaF3 cells,[9],2.17 nM
same,IC50 for neutralizing FGF9 (34.72 nM)-induced 3H-thymidine incorporation in BaF3 cells,[9],0.46 nM
same,IC50 for neutralizing FGF1 (51.6 nM)-induced 3H-thymidine incorporation in BaF3 cells,[10],4.81 nM
same,IC50 for neutralizing FGF1 (51.6 nM)-induced 3H-thymidine incorporation in BaF3 cells,[11],8.77 nM
same,IC50 for neutralizing FGF9 (34.72 nM)-induced 3H-thymidine incorporation in BaF3 cells,[11],1.42 nM
same,IC50 for neutralizing FGF1 (51.6 nM)-induced 3H-thymidine incorporation in BaF3 cells,[12],4.2 nM
same,IC50 for neutralizing FGF9 (34.72 nM)-induced 3H-thymidine incorporation in BaF3 cells,[12],0.4 nM
same,IC50 for neutralizing FGF1 (51.6 nM)-induced 3H-thymidine incorporation in BaF3 cells,[13],1.32 nM
same,Kd,[14],0.13 nM
B3,"Cytotoxicity Conjugate 1 IC50, BFTC-905 (bladder) cells, Cell Titer-Glo, 96 h",[15],2.7 nM
same,"Cytotoxicity Conjugate 1 IC50, RT-112 (bladder) cells, Cell Titer-Glo, 96 h",[16],1.3 nM
same,"cytotoxicity IC50 (nM), RT112 cells",[17],2.1 nM
same,"cytotoxicity IC50 (nM), Kato-III cells",[18],5.4 nM
same,"cytotoxicity IC50 (nM), transfected Baf3-FGFR3(IIIb) cells",[19],2.5 nM
same,Kd,[20],0.823 nM
same,koff,[20],0.000187 s⁻¹
same,kon,[20],227000 M⁻¹ s⁻¹
same,IC50,[21],3.6 nM

# Reference: patent US20150165067A1 (Eli Lilly, published 2015)
